Data: patent US20260209316A1 (US Dept. of Health and Human Services, published 2026)
Read-outs that look alike come from different tables or passages of the source.

Tests used:
[1] = biological target: T1, mucin domain-deleted Sudan GP (GPdMuc) (Sudan virus (SUDV), UniProt Q7T9D9 33-632); assay: ELISA on coated GP
T1 construct: also called Sudan GPdMuc; GP(S)dMuc

[2] = biological target: T2, mucin domain-deleted Sudan GP (GPdMuc) (Sudan virus (SUDV), UniProt Q7T9D9 33-632); assay: ELISA on coated GP
[3] = biological target: T2, mucin domain-deleted Sudan GP (GPdMuc); assay: ELISA on coated GP; remark: listed apart in the source
[4] = biological target: T2, mucin domain-deleted Sudan GP (GPdMuc); assay: BLI competition on Sudan GPdMuc (lower table); competitor 15H10
[5] = biological target: T2, mucin domain-deleted Sudan GP (GPdMuc); assay: BLI competition on Sudan GPdMuc (lower table); competitor mAb166
[6] = biological target: T3, mucin domain-deleted Zaire GP (GPdMuc) (Ebola (Zaire) virus (EBOV), UniProt Q05320 33-632); assay: BLI competition on Zaire GPdMuc (upper table); competitor 15H10
[7] = biological target: T3, mucin domain-deleted Zaire GP (GPdMuc); assay: ELISA on coated GP
[8] = biological target: T3, mucin domain-deleted Zaire GP (GPdMuc); assay: ELISA on coated GP; remark: listed apart in the source
[9] = biological target: T3, mucin domain-deleted Zaire GP (GPdMuc); assay: BLI competition on Zaire GPdMuc (upper table); competitor 380L
[10] = biological target: T3, mucin domain-deleted Zaire GP (GPdMuc); assay: BLI competition on Zaire GPdMuc (upper table); competitor 316L
[11] = biological target: T3, mucin domain-deleted Zaire GP (GPdMuc); assay: BLI competition on Zaire GPdMuc (upper table); competitor 13C6
[12] = biological target: T3, mucin domain-deleted Zaire GP (GPdMuc); assay: BLI competition on Zaire GPdMuc (upper table); competitor KZ52
[13] = biological target: T4, mucin domain-deleted Zaire GP (GPdMuc) (Ebola (Zaire) virus (EBOV), UniProt Q05320 33-632); assay: BLI competition on Zaire GPdMuc (upper table); competitor 15H10
T4 construct: also called Zaire GPdMuc; GP(Z)dMuc

[14] = biological target: T4, mucin domain-deleted Zaire GP (GPdMuc); assay: ELISA on coated GP
[15] = biological target: T1, mucin domain-deleted Sudan GP (GPdMuc); assay: ELISA on coated GP; remark: listed apart in the source
[16] = biological target: T1, mucin domain-deleted Sudan GP (GPdMuc); assay: BLI competition on Sudan GPdMuc (lower table); competitor 15H10
[17] = biological target: T4, mucin domain-deleted Zaire GP (GPdMuc); assay: BLI competition on Zaire GPdMuc (upper table); competitor 316L
[18] = biological target: T4, mucin domain-deleted Zaire GP (GPdMuc); assay: BLI competition on Zaire GPdMuc (upper table); competitor mAb114
[19] = biological target: T1, mucin domain-deleted Sudan GP (GPdMuc); assay: BLI competition on Sudan GPdMuc (lower table); competitor mAb166
[20] = biological target: T4, mucin domain-deleted Zaire GP (GPdMuc); assay: BLI competition on Zaire GPdMuc (upper table); competitor 13C6
[21] = biological target: T4, mucin domain-deleted Zaire GP (GPdMuc); assay: BLI competition on Zaire GPdMuc (upper table); competitor KZ52
[22] = biological target: T4, mucin domain-deleted Zaire GP (GPdMuc); assay: BLI competition on Zaire GPdMuc (upper table); competitor 380L
[23] = biological target: T3, mucin domain-deleted Zaire GP (GPdMuc); assay: BLI competition on Zaire GPdMuc (upper table); competitor mAb114
[24] = biological target: T4, mucin domain-deleted Zaire GP (GPdMuc); assay: ELISA on coated GP; remark: listed apart in the source
[25] = biological target: T1, mucin domain-deleted Sudan GP (GPdMuc); assay: ELISA on coated GP; remark: listed apart in the source
[26] = biological target: T1, mucin domain-deleted Sudan GP (GPdMuc); assay: ELISA on coated GP (EC50)

B1: antibody 545S (antibody, V domains shown)
VH: QVQLQESGPGLVKPSQTLSLTCTVSGGSISRAGSYWSWIRQHPGKGLEWIGYISYSGSTYYNPSLESRVTMSLDTSKSQFSLKLSSVTAADTAVYYCAREDRSGFYGLDVWGQGTTVTVSS
VL: QSVLTQPSSLSASPGATASLTCTLRSGINVDTYRIYWYQQKPGSPPQYLLRYKSDSDKHQGSGVPSRFSGSKDASANAGILLISGLQSADEADYYCMIWHSGAWVFGGGTKLTVQG
notes: also called 545S mAb
EC50 [1]: 0.0233 µg/mL

B2: antibody 291S (antibody, V domains shown)
VH: QVQLQESGPGLVKPSQTLSLTCTVSGGSFSSGFYWSWIRQRPGKGLEWVGYTYYSGSTYYNPSLQSRVTISVDTSKNQFSLNLSSVTAADTAVYHCARADYGGLFDYWGQGILVTVSS
VL: QSVLTQPSSLSASPGASASLTCTLRSGINVGTYRIFWYQQKPGSPPQFLLRYNSDSDKQQGSGVPSRFSGSKDASANAGILLISGLQSEDEADYYCMIWHTSAWVFGGGTKLTVL
EC50 [1]: 0.0519 µg/mL

B3: antibody 16F6 (antibody, V domains shown)
VH: EVQLVESGGGLVTPGGSLKLSCAASGFAFNYYDMFWVRQNTEKRLEWVAYINSGGGNTYYPDTVKGRFTISRDNAKKTLFLQMSSLRSEDTAMYYCARQLYGNSFFDYWGQGTSLTVSA
VL: DIVMTQSHKFMSTSVGDRVTITCKASQDVTTAVAWYQQKPGHSPKLLIYWASTRHTGVPDRFTGSGSGTDFTLTLNSVQAEDLALYYCQQHYSTPLTFGAGTKLELK
EC50 [2]: 0.05 µg/mL
EC50 [3]: 0.0558 µg/mL
% inhibition of binding [4]: 7.8%
% inhibition of binding [5]: 0.2%

B4: antibody mAb114 (antibody, V domains shown)
VH: EVQLVESGGGLIQPGGSLRLSCAASGFALRMYDMHWVRQTIDKRLEWVSAVGPSGDTYYADSVKGRFAVSRENAKNSLSLQMNSLTAGDTAIYYCVRSDRGVAGLFDSWGQGILVTVSS
VL: DIQMTQSPSSLSASVGDRITITCRASQAFDNYVAWYQQRPGKVPKLLISAASALHAGVPSRFSGSGSGTHFTLTISSLQPEDVATYYCQNYNSAPLTFGGGTKVEIK
% inhibition of binding [6]: 3%
EC50 [7]: 0.007 µg/mL
EC50 [8]: 0.00904 µg/mL
% inhibition of binding [9]: 95%
% inhibition of binding [10]: 96%
% inhibition of binding [11]: 92%
% inhibition of binding [12]: 10%

B5: antibody 380L (antibody, V domains shown)
VH: EVQLVESGGGLVQPGGSLTLSCAASGFTFGDYVMHWVRQVPGRGLEWLSAVSWSGYTTYSADSVKGRFTISRDNAKNSLYLQMSRLGTADTGLYYCVTLIGAIGIRDSFDAWGRGVLVTVSS
VL: QSVLTQPPSMSGAPGQRVTVSCTGSSSNIGAGNYVQWYQQLPGTAPKVLIYQTDKRPSGISDRFSGSKSGTSASLTISGLQSEDEADYYCQVYDSSLNGWVFGGGTRLTVL
notes: also called 380L mAb; mAb 380L
% inhibition of binding [13]: 24%
EC50 [14]: 0.012 µg/mL
EC50 [15]: 0.0238 µg/mL
% inhibition of binding [16]: 3.6%
% inhibition of binding [17]: 93%
% inhibition of binding [18]: 100%
% inhibition of binding [19]: 81.9%
% inhibition of binding [20]: 97%
% inhibition of binding [21]: 13%

B6: antibody 316L (antibody, V domains shown)
VH: EERLVESGGGLVQPGGSLRLSCAASGFTFGDYAMHWVRQVPGKSLEWLSGISWSGYTTYSADSVKGRFTISRDNAKNSLYLQMNRLRPEDTGLYYCVTLIGAIGIKDSLDVWGRGVLVTVSS
VL: QSVLTQPPSVSGAPGQRVTVSCSGSSSNIGAGNYVQWYQQLPGTAPKVLIYQTEKRPSGTSDRFSGSKSDTSASLTINGLQSEDEADYYCQVYDSNLNGWVFGGGTRLTVLG
notes: also called 316L mAb; mAb 316L
% inhibition of binding [13]: 26%
EC50 [14]: 0.0124 µg/mL
EC50 [15]: 0.0272 µg/mL
% inhibition of binding [16]: 14.5%
% inhibition of binding [22]: 92%
% inhibition of binding [18]: 100%
% inhibition of binding [19]: 80%
% inhibition of binding [20]: 98%
% inhibition of binding [21]: 13%

B7: antibody 13C6 (antibody, V domains shown)
VH: QLTLKESGPGILKPSQTLSLTCSLSGFSLSTSGVGVGWFRQPSGKGLEWLALIWWDDDKYYNPSLKSQLSISKDFSRNQVFLKISNVDIADTATYYCARRDPFGYDNAMGYWGQGTSVTVSS
VL: DIVMTQSQKFMSTSVGDRVSLTCKASQNVGTAVAWYQQKPGQSPKLLIYSASNRYTGVPDRFTGSGSGTDFTLTISNMQSEDLADYFCQQYSSYPLTFGAGTKLELR
% inhibition of binding [6]: 1%
% inhibition of binding [9]: 95%
% inhibition of binding [10]: 95%
% inhibition of binding [23]: 97%
% inhibition of binding [12]: 16%

B8: antibody 232L (antibody, V domains shown)
VH: KSQLVESGGGLVQPGGSLRLSCAASGFTFDAYAMHWVRQAPGEGLEWVTAISWSGSSTYYADSVKGRFTFSRDNAKNSLYLEMNSLRADDTAFYYCVKGGVYNWFDVWGPGVLVTVSS
VL: QSVLTQPPSVSGAPGQRVTISCTGSRSNIGGYYVSWYQQFPGTTPKLLIYQDNKRPSGVSDRFSGSKSGTSASLTITGLQTEDEADYYCLSYDSSLNGWVFGGGTRLTVL
EC50 [24]: 0.08 µg/mL
EC50 [25]: > 10 µg/mL
EC50 [26]: > 10 µg/mL
